Laboratory results taken from paper PMC9043764.

B1: cathepsin V (CTSV): N221Q (protein)
parent chain: MNLSLVLAAFCLGIASAVPKFDQNLDTKWYQWKATHRRLYGANEEGWRRAVWEKNMKMIELHNGEYSQGKHGFTMAMNAFGDMTNEEFRQMMGCFRNQKFRKGKVFREPLFLDLPKSVDWRKKGYVTPVKNQKQCGSCWAFSATGALEGQMFRKTGKLVSLSEQNLVDCSRPQGNQGCNGGFMARAFQYVKENGGLDSEESYPYVAVDEICKYRPENSVANDTGFTVVAPGKEKALMKAVATVGPISVAMDAGHSSFQFYKSGIYFEPDCSSKNLDHGVLVVGYGFEGANSNNSKYWLVKNSWGPEWGSNGYVKIAKDKNNHCGIATAASYPNV
B2: cathepsin V (CTSV): N292Q (protein)
parent chain: MNLSLVLAAFCLGIASAVPKFDQNLDTKWYQWKATHRRLYGANEEGWRRAVWEKNMKMIELHNGEYSQGKHGFTMAMNAFGDMTNEEFRQMMGCFRNQKFRKGKVFREPLFLDLPKSVDWRKKGYVTPVKNQKQCGSCWAFSATGALEGQMFRKTGKLVSLSEQNLVDCSRPQGNQGCNGGFMARAFQYVKENGGLDSEESYPYVAVDEICKYRPENSVANDTGFTVVAPGKEKALMKAVATVGPISVAMDAGHSSFQFYKSGIYFEPDCSSKNLDHGVLVVGYGFEGANSNNSKYWLVKNSWGPEWGSNGYVKIAKDKNNHCGIATAASYPNV
B3: cathepsin V (CTSV): 2NQ (protein)
parent chain: MNLSLVLAAFCLGIASAVPKFDQNLDTKWYQWKATHRRLYGANEEGWRRAVWEKNMKMIELHNGEYSQGKHGFTMAMNAFGDMTNEEFRQMMGCFRNQKFRKGKVFREPLFLDLPKSVDWRKKGYVTPVKNQKQCGSCWAFSATGALEGQMFRKTGKLVSLSEQNLVDCSRPQGNQGCNGGFMARAFQYVKENGGLDSEESYPYVAVDEICKYRPENSVANDTGFTVVAPGKEKALMKAVATVGPISVAMDAGHSSFQFYKSGIYFEPDCSSKNLDHGVLVVGYGFEGANSNNSKYWLVKNSWGPEWGSNGYVKIAKDKNNHCGIATAASYPNV

Assay: Western blot of supernatant and whole cell lysate, A549
Conditions: glycan lost; control: wild type CTSV

Row | Protein | expression_or_secretion
1 | B1 | decreases
2 | B2 | decreases
3 | B3 | decreases
